Laboratory results as given in article PMC3725402.

Assays:
Type in all cases: biochemical, Arabidopsis thaliana
[1] = substrate: NCCCCN; assay: HPLC of dansylated N-methylputrescine, fluorimetric; details: PMT activity, co-substrate SAM, 20 mM HEPES pH 8.0, 37°C, 2 mM DTT, 1 mM ascorbic acid
Excerpt: (§1) HPLC of dansylated N-methylputrescine, fluorimetric on AtSPDS1 (spermidine synthase 1)

[2] = substrate: C[S+](CC[C@H](N)C(=O)O)C[C@H]1O[C@@H](n2cnc3c(N)ncnc32)[C@H](O)[C@@H]1O; assay: as above; details: PMT activity, co-substrate putrescine, 20 mM HEPES pH 8.0, 37°C, 2 mM DTT, 1 mM ascorbic acid
Excerpt: as §1

[3] = substrate: NCCCCN; assay: HPLC of dansylated spermidine, fluorimetric; details: SPDS activity, co-substrate dcSAM, 20 mM HEPES pH 8.0, 37°C, 2 mM DTT, 1 mM ascorbic acid
Excerpt: (§2) HPLC of dansylated spermidine, fluorimetric on AtSPDS1 (spermidine synthase 1)

[4] = substrate: C[S+](CCCN)C[C@H]1O[C@@H](n2cnc3c(N)ncnc32)[C@H](O)[C@@H]1O; assay: HPLC of dansylated spermidine, fluorimetric; details: SPDS activity, co-substrate putrescine, 20 mM HEPES pH 8.0, 37°C, 2 mM DTT, 1 mM ascorbic acid
Excerpt: as §2

| Protein | Km [1] [µM] | kcat [1] [s⁻¹] | Km [2] [µM] | kcat [2] [s⁻¹] | Km [3] [µM] | kcat [3] [s⁻¹] | Km [4] [µM] | kcat [4] [s⁻¹] |
| --- | --- | --- | --- | --- | --- | --- | --- | --- |
| AtSPDS1 (spermidine synthase 1) (Arabidopsis thaliana; D131I/Q107T/V134T) (protein, pQE-30, N-terminal His tag, E. coli M15[pREP4], HisTrap purified) MDAKETSATDLKRPREEDDNGGAATMETENGDQKKEPACFSTVIPGWFSEMSPMWPGEAHSLKVEKVLFQGKSDYQDVIVFQSATYGKVLVLDGVIQLTERDECAYTEMITHLPLCSIPNPKKVLVIGGGIGGTLREVARHASIEQIDMCEIDKMVVDVSKQFFPDVAIGYEDPRVNLVIGDGVAFLKNAAEGSYDAVIVDSSDPIGPAKELFEKPFFQSVARALRPGGVVCTQAESLWLHMDIIEDIVSNCREIFKGSVNYAWTSVPTYPSGVIGFMLCSTEGPDVDFKHPLNPIDESSSKSNGPLKFYNAEIHSAAFCLPSFAKKVIESKAN | 32 ± 1.88 | 0.081 | 12 ± 0.60 | 0.081 | – | – | – | – |
| AtSPDS1 (spermidine synthase 1) (Arabidopsis thaliana) (protein, pQE-30, N-terminal His tag, E. coli M15[pREP4], HisTrap purified) MDAKETSATDLKRPREEDDNGGAATMETENGDQKKEPACFSTVIPGWFSEMSPMWPGEAHSLKVEKVLFQGKSDYQDVIVFQSATYGKVLVLDGVIQLTERDECAYQEMITHLPLCSIPNPKKVLVIGGGDGGVLREVARHASIEQIDMCEIDKMVVDVSKQFFPDVAIGYEDPRVNLVIGDGVAFLKNAAEGSYDAVIVDSSDPIGPAKELFEKPFFQSVARALRPGGVVCTQAESLWLHMDIIEDIVSNCREIFKGSVNYAWTSVPTYPSGVIGFMLCSTEGPDVDFKHPLNPIDESSSKSNGPLKFYNAEIHSAAFCLPSFAKKVIESKAN | – | – | – | – | 220 ± 18.44 | 0.722 | 18 ± 1.23 | 0.722 |
| AtSPDS1 (spermidine synthase 1) (Arabidopsis thaliana; D131I) (protein, pQE-30, N-terminal His tag, E. coli M15[pREP4], HisTrap purified) MDAKETSATDLKRPREEDDNGGAATMETENGDQKKEPACFSTVIPGWFSEMSPMWPGEAHSLKVEKVLFQGKSDYQDVIVFQSATYGKVLVLDGVIQLTERDECAYQEMITHLPLCSIPNPKKVLVIGGGIGGVLREVARHASIEQIDMCEIDKMVVDVSKQFFPDVAIGYEDPRVNLVIGDGVAFLKNAAEGSYDAVIVDSSDPIGPAKELFEKPFFQSVARALRPGGVVCTQAESLWLHMDIIEDIVSNCREIFKGSVNYAWTSVPTYPSGVIGFMLCSTEGPDVDFKHPLNPIDESSSKSNGPLKFYNAEIHSAAFCLPSFAKKVIESKAN | 56 ± 4.45 | 0.00448 | 28 ± 0.77 | 0.00448 | – | – | – | – |
